The supplement of paper PMC12042874
± gives the uncertainty stated by the source.

assay: amyloid nucleation score (Sup35N fusion, yeast selection) (log enrichment); library NNK2; higher = more nucleation; inactive = no reads after selection
In short: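 Peptides of 20 random codons fused to Sup35N were expressed in psi-negative yeast, induced 24 hours with 100 μM copper sulfate, then grown 7 days at 30°C on medium lacking adenine and uracil. Input and output plasmid inserts were Illumina-sequenced. Nucleation score is the DiMSum log enrichment of output over input reads, centred on the mode score of non-aggregating sequences, excluding sequences with under 100 input reads. Random libraries had three technical output replicates.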

Substance	amyloid nucleation score
HLLYPSSMVDRALHGLDTRT	5.358 ± 0.051
HLMLFDMTASLLHSHNVSRP	5.63 ± 0.058
HLNFRSGILAISFIFDLSNH	inactive
HLSYILGVGMFNVHHDNGFF	2.5 ± 0.2
HLVSSRGRMWPPFAPVGKQD	0.492 ± 0.64
HMEAFWCWFYGNVAFNRFCV	-0.305 ± 1
HNFVFLGKFAYTWKWMKMLS	inactive
HNKVLGSSHHKLRQIPTCMC	0.484 ± 0.8
HNNFYPA	-0.552 ± 0.35
HPDGYVHRVGSLN	-0.235 ± 1.1
HPFMFKVCSTYFLNYLASCQ	6.78 ± 0.074
HPKAYARVTTK	-0.068 ± 0.36
HPTSYVPSYLSFASKWLRVA	0.571 ± 0.3
HRHFCSLDGA	0.076 ± 0.29
HRLLVPDHTMYVSLKRKGLR	0.092 ± 1.1
HRPNCFRWPGLRVLFWYRK	-0.326 ± 0.45
HSALWRLWEPAQP	0.552 ± 0.64
HSLKNYSGYLLLRTNRCI	0.135 ± 0.65
HSSSDVCT	5.295 ± 0.049
HSYFRFTPSFLAARSKYLRH	-0.498 ± 1.1
HSYLKLVGLCKNSKRFNHNF	inactive
HTHGGFSHRYGSRWGQYLSW	5.53 ± 0.063

Substance	amyloid nucleation score
HTTGFPFRGLGDIDSLAEQF	-0.217 ± 0.79
HTYVRVYLRGELCHPNCMNA	6.348 ± 0.032
HVAQTS	1.04 ± 0.4
HVAWGHFLLIHIFHVNYGYL	-0.627 ± 1.1
HVLNWTYSTRIDAGGKSIRM	-0.631 ± 0.76
HVLYDCMGVIIKSCHYLDLC	-0.508 ± 0.37
HVMNGCGLYGQGSSRYYQTV	0.957 ± 0.26
HVNRGYSLVTPRMEVDWQLS	1.42 ± 0.15
HVVGVNLYRTLGRVFHLWDS	-0.084 ± 0.76
HVWLIGFNLFLYFITLVVWV	-0.459 ± 1.1
HYGTTFVISL	3.85 ± 0.1
HYGVNESLIKRYNWLRGVIW	0.227 ± 1.1
HYHTSISYR	4.77 ± 0.1
HYKTMFRFVCHFCENGGDGL	10.18 ± 0.06
HYMSAHGRRRLKPQVFYT	inactive
HYSRD	-0.593 ± 1.1
IACIEHWALGWLLCVSGVRV	0.534 ± 0.5
IAFKLRSTLSQPRNTCVLWH	0.276 ± 1
IAGYGVHTLVQCVV	0.082 ± 1
IAICVNARE	0.838 ± 0.35
IAKGPGALYRSKMRWSGFVL	-0.817 ± 1
IALFVGFLVDAKDEGIL	-0.419 ± 0.26

Substance	amyloid nucleation score
IARLASQSYLDMVADAEDTG	0.472 ± 0.49
IAVSMNEMGY	inactive
ICCCFIWP	7.044 ± 0.044
ICGVKRKKNVILSYFISMEY	inactive
ICGYEACNNIGP	-1.12 ± 0.62
ICLDLCNMKLEKGLS	-1.55 ± 1
ICLHHDYGSGWWIIQSAWQI	2.95 ± 0.076
ICNALCLYSVNLLPGTLMGI	7.49 ± 0.027
ICSYVTVCVRLGFCKLNAMM	0.504 ± 0.51
ICTFYDTGLWVIYSVTRKAR	-0.057 ± 0.65
ICTGVSTHIEPRPLTELCFR	2.6 ± 0.073
ICWPSTVDEGLPFYLWIYAM	0.23 ± 0.39
IDAELLGWFFPEDGFHFSAV	-1.32 ± 1.1
IDGRDSFCQGGNRTCSKGCC	-0.303 ± 0.65
IDLAFLLAVAVEPGWRTEV	-0.024 ± 1
IDPKEMTGDRQWVSFTVRRR	0.574 ± 0.24
IDPLKGMLD	-2 ± 0.78
IDYQKMLVSDCGD	0.363 ± 0.46
IELGFFSGTVIVVSYWEFTR	-1.02 ± 1
IEMHDINYNP	-0.596 ± 0.29
IESSEQSWT	-0.75 ± 0.36
IETNTSGSPIVPKDDLYNSY	-0.672 ± 0.55

Substance	amyloid nucleation score
IFAHSPLYMCGYADVYVHPT	inactive
IFCLPIKKRVMYNHGLTIFG	0.461 ± 0.29
IFDCCY	-1.82 ± 1.1
IFDYSV	-0.874 ± 0.55
IFEVRLPQELSSYSHFGGGC	0.706 ± 0.74
IFHSESALWRHRYMGYVMVR	-0.66 ± 0.45
IFMAKFSEIPTGPVIIMFYL	inactive
IFMRVHLSMIVELKTHPDI	3.2 ± 0.056
IFSISNFAITVSNTLTV	1.06 ± 0.32
IFSLDFSGYVSLYLQKMNVL	0.815 ± 0.15
IFSTFCFLSAILFSIFPYEP	inactive
IFSTGNVKGNLTR	-0.491 ± 0.22
IFVCNMFVSYNSGNSGWCSV	7.675 ± 0.042
IFVVCLGMDTVYLIGYYSPA	-1.25 ± 0.78
IFVYY	-0.162 ± 0.4
IGFYFLNRRKIFLASTGILM	inactive
IGNDFNANM	-0.754 ± 0.76
IGSEDPRHFRSVCWSYNDTL	-0.789 ± 0.61
IGSWSTA	0.367 ± 0.36
